Data from patent publication US20230212549A1 (3B PHARMACEUTICALS, published 2023).
Values joined by “and” are separate entries in the source; they are usually repeats but may differ in a detail not shown here. Equal values may be shown once. Numbered stars: 1 amine (or outer) side, 2 acyl side, 3 side chain; on linkers, the order of the positions; unused ones are H or OH. Bridge positions count the residues as written; N and C are the ends. Square brackets hold non-standard residues; d marks the D form. * marks the point of attachment. DOTA = O=C(O)CN1CCN(CC(=O)O)CCN(CC(=O)*)CCN(CC(=O)O)CC1; Oic = O=C(O)[C@@H]1C[C@@H]2CCCC[C@@H]2N1; mXylylene = c1cc(C[*:1])cc(C[*:2])c1; NMeF = CN[C@@H](Cc1ccccc1)C(=O)O; Nle = CCCC[C@H](N)C(=O)O; Inp = O=C(O)C1CCNCC1; Mpa = O=C(O)CCS

Assays:
[1] = biological target: T1, fibroblast activation protein (FAP) on FAP-expressing human WI-38 fibroblasts (human, UniProt Q12884 1-760); experiment: competitive FACS, WI-38 cells, vs Cy5 tracer m3; C = pIC50 6.1-7.0
T1 construct: also called human FAP

[2] = biological target: Recombinant human FAP (R&D systems, #3715-SE) (human, UniProt Q12884 26-760); experiment: cell-based or functional assay

Binder | pIC50 Category (FACS) [1] | pIC50 Category (Activity) [2]
Ac-MCP[Oic]TEFCDHFRD-NH2 (linker 2-8 via mXylylene; SMILES CSCC[C@H](NC(C)=O)C(=O)N[C@H]1CSCc2cccc(c2)CSC[C@@H](C(=O)N[C@@H](CC(=O)O)C(=O)N[C@@H](Cc2c[nH]cn2)C(=O)N[C@@H](Cc2ccccc2)C(=O)N[C@@H](CCCNC(=N)N)C(=O)N[C@@H](CC(=O)O)C(N)=O)NC(=O)[C@H](Cc2ccccc2)NC(=O)[C@H](CCC(=O)O)NC(=O)[C@H]([C@@H](C)O)NC(=O)[C@@H]2C[C@@H]3CCCC[C@@H]3N2C(=O)[C@@H]2CCCN2C1=O, also called 3BP-3217) [Ac-Met-[Cys(3MeBn)-Pro-Oic-Thr-Glu-Phe-Cys]-Asp-His-Phe-Arg-Asp-NH2] | 6.1 pIC50 and 7 pIC50 | 6.1 pIC50 and 7 pIC50
{DOTA}-[Nle]CPPTEFCDHFRD-NH2 (linker 2-8 via mXylylene; SMILES CCCC[C@H](NC(=O)CN1CCN(CC(=O)O)CCN(CC(=O)O)CCN(CC(=O)O)CC1)C(=O)N[C@H]1CSCc2cccc(c2)CSC[C@@H](C(=O)N[C@@H](CC(=O)O)C(=O)N[C@@H](Cc2c[nH]cn2)C(=O)N[C@@H](Cc2ccccc2)C(=O)N[C@@H](CCCNC(=N)N)C(=O)N[C@@H](CC(=O)O)C(N)=O)NC(=O)[C@H](Cc2ccccc2)NC(=O)[C@H](CCC(=O)O)NC(=O)[C@H]([C@@H](C)O)NC(=O)[C@@H]2CCCN2C(=O)[C@@H]2CCCN2C1=O, also called 3BP-3088) [DOTA-Nle-[Cys(3MeBn)-Pro-Pro-Thr-Glu-Phe-Cys]-Asp-His-Phe-Arg-Asp-NH2] | 6.1 pIC50 and 7 pIC50 | 6.1 pIC50 and 7 pIC50
{DOTA}-MCPPTEFCDHFRD-NH2 (linker 2-8 via mXylylene; SMILES CSCC[C@H](NC(=O)CN1CCN(CC(=O)O)CCN(CC(=O)O)CCN(CC(=O)O)CC1)C(=O)N[C@H]1CSCc2cccc(c2)CSC[C@@H](C(=O)N[C@@H](CC(=O)O)C(=O)N[C@@H](Cc2c[nH]cn2)C(=O)N[C@@H](Cc2ccccc2)C(=O)N[C@@H](CCCNC(=N)N)C(=O)N[C@@H](CC(=O)O)C(N)=O)NC(=O)[C@H](Cc2ccccc2)NC(=O)[C@H](CCC(=O)O)NC(=O)[C@H]([C@@H](C)O)NC(=O)[C@@H]2CCCN2C(=O)[C@@H]2CCCN2C1=O) [DOTA-Met-[Cys(3MeBn)-Pro-Pro-Thr-Glu-Phe-Cys]-Asp-His-Phe-Arg-Asp-NH2] | 6.1 pIC50 and 7 pIC50 | 6.1 pIC50 and 7 pIC50
{DOTA}-[Inp]CPPTEFCDH[NMeF]RD-NH2 (linker 2-8 via mXylylene; SMILES C[C@@H](O)[C@@H]1NC(=O)[C@@H]2CCCN2C(=O)[C@@H]2CCCN2C(=O)[C@@H](NC(=O)C2CCN(C(=O)CN3CCN(CC(=O)O)CCN(CC(=O)O)CCN(CC(=O)O)CC3)CC2)CSCc2cccc(c2)CSC[C@@H](C(=O)N[C@@H](CC(=O)O)C(=O)N[C@@H](Cc2c[nH]cn2)C(=O)N(C)[C@@H](Cc2ccccc2)C(=O)N[C@@H](CCCNC(=N)N)C(=O)N[C@@H](CC(=O)O)C(N)=O)NC(=O)[C@H](Cc2ccccc2)NC(=O)[C@H](CCC(=O)O)NC1=O, also called 3BP-3265) [DOTA-Inp-[Cys(3MeBn)-Pro-Pro-Thr-Glu-Phe-Cys]-Asp-His-Nmf-Arg-Asp-NH2] | 6.1 pIC50 and 7 pIC50 | 6.1 pIC50 and 7 pIC50
{DOTA}-CPPTEFCDHFRD-NH2 (linker 1-7 via mXylylene; SMILES C[C@@H](O)[C@@H]1NC(=O)[C@@H]2CCCN2C(=O)[C@@H]2CCCN2C(=O)[C@@H](NC(=O)CN2CCN(CC(=O)O)CCN(CC(=O)O)CCN(CC(=O)O)CC2)CSCc2cccc(c2)CSC[C@@H](C(=O)N[C@@H](CC(=O)O)C(=O)N[C@@H](Cc2c[nH]cn2)C(=O)N[C@@H](Cc2ccccc2)C(=O)N[C@@H](CCCNC(=N)N)C(=O)N[C@@H](CC(=O)O)C(N)=O)NC(=O)[C@H](Cc2ccccc2)NC(=O)[C@H](CCC(=O)O)NC1=O, also called 3BP-3174) [DOTA-[Cys(3MeBn)-Pro-Pro-Thr-Glu-Phe-Cys]-Asp-His-Phe-Arg-Asp-NH2] | 6.1 pIC50 and 7 pIC50 | 6.1 pIC50 and 7 pIC50
Ac-MC[dP]PTEFCDHFRD-NH2 (linker 2-8 via mXylylene; SMILES CSCC[C@H](NC(C)=O)C(=O)N[C@H]1CSCc2cccc(c2)CSC[C@@H](C(=O)N[C@@H](CC(=O)O)C(=O)N[C@@H](Cc2c[nH]cn2)C(=O)N[C@@H](Cc2ccccc2)C(=O)N[C@@H](CCCNC(=N)N)C(=O)N[C@@H](CC(=O)O)C(N)=O)NC(=O)[C@H](Cc2ccccc2)NC(=O)[C@H](CCC(=O)O)NC(=O)[C@H]([C@@H](C)O)NC(=O)[C@@H]2CCCN2C(=O)[C@H]2CCCN2C1=O, also called 3BP-3176) [Ac-Met-[Cys(3MeBn)-pro-Pro-Thr-Glu-Phe-Cys]-Asp-His-Phe-Arg-Asp-NH2] | 6.1 pIC50 and 7 pIC50 | 6.1 pIC50 and 7 pIC50
[Mpa]PPTQFCD-NH2 (linker 1-7 via mXylylene; SMILES C[C@@H](O)[C@@H]1NC(=O)[C@@H]2CCCN2C(=O)[C@@H]2CCCN2C(=O)CCSCc2cccc(c2)CSC[C@@H](C(=O)N[C@@H](CC(=O)O)C(N)=O)NC(=O)[C@H](Cc2ccccc2)NC(=O)[C@H](CCC(N)=O)NC1=O, also called 3BP-3419) [[3MeBn-Spa-Pro-Pro-Thr-Gln-Phe-Cys]-Asp-NH2] | 6.1 pIC50 and 7 pIC50 | 6.1 pIC50 and 7 pIC50
Ac-MCPPTEFCDHF-NH2 (linker 2-8 via mXylylene; SMILES CSCC[C@H](NC(C)=O)C(=O)N[C@H]1CSCc2cccc(c2)CSC[C@@H](C(=O)N[C@@H](CC(=O)O)C(=O)N[C@@H](Cc2c[nH]cn2)C(=O)N[C@@H](Cc2ccccc2)C(N)=O)NC(=O)[C@H](Cc2ccccc2)NC(=O)[C@H](CCC(=O)O)NC(=O)[C@H]([C@@H](C)O)NC(=O)[C@@H]2CCCN2C(=O)[C@@H]2CCCN2C1=O, also called 3BP-3199) [Ac-Met-[Cys(3MeBn)-Pro-Pro-Thr-Glu-Phe-Cys]-Asp-His-Phe-NH2] | 6.1 pIC50 and 7 pIC50 | 7.1 pIC50 and 8 pIC50
Ac-MCPPTE[dF]CDHFRD-NH2 (linker 2-8 via mXylylene; SMILES CSCC[C@H](NC(C)=O)C(=O)N[C@H]1CSCc2cccc(c2)CSC[C@@H](C(=O)N[C@@H](CC(=O)O)C(=O)N[C@@H](Cc2c[nH]cn2)C(=O)N[C@@H](Cc2ccccc2)C(=O)N[C@@H](CCCNC(=N)N)C(=O)N[C@@H](CC(=O)O)C(N)=O)NC(=O)[C@@H](Cc2ccccc2)NC(=O)[C@H](CCC(=O)O)NC(=O)[C@H]([C@@H](C)O)NC(=O)[C@@H]2CCCN2C(=O)[C@@H]2CCCN2C1=O, also called 3BP-3180) [Ac-Met-[Cys(3MeBn)-Pro-Pro-Thr-Glu-phe-Cys]-Asp-His-Phe-Arg-Asp-NH2] | 6.1 pIC50 and 7 pIC50 | 6.1 pIC50 and 7 pIC50
Ac-MC[Oic]PTEFCDHFRD-NH2 (linker 2-8 via mXylylene; SMILES CSCC[C@H](NC(C)=O)C(=O)N[C@H]1CSCc2cccc(c2)CSC[C@@H](C(=O)N[C@@H](CC(=O)O)C(=O)N[C@@H](Cc2c[nH]cn2)C(=O)N[C@@H](Cc2ccccc2)C(=O)N[C@@H](CCCNC(=N)N)C(=O)N[C@@H](CC(=O)O)C(N)=O)NC(=O)[C@H](Cc2ccccc2)NC(=O)[C@H](CCC(=O)O)NC(=O)[C@H]([C@@H](C)O)NC(=O)[C@@H]2CCCN2C(=O)[C@@H]2C[C@@H]3CCCC[C@@H]3N2C1=O, also called 3BP-3216) [Ac-Met-[Cys(3MeBn)-Oic-Pro-Thr-Glu-Phe-Cys]-Asp-His-Phe-Arg-Asp-NH2] | 6.1 pIC50 and 7 pIC50 | 6.1 pIC50 and 7 pIC50
